For the experiment, the target named is T1, recombinant human uPAR protein (Leu23-Arg303) with a C-terminal 6-his tag (human, UniProt Q03405 23-303).
T1 construct: also called CD87
Put plainly: Biacore (SPR), single cycle kinetics. As for the experimental part:
Six clones 8B1, 11E10, 17C9, 19D7, 6C8, and 14C5 were produced. Next, the binding affinities KD of 8B1, 11E10, 17C9, 19D7, 6C8, and 14C5 antibodies were assessed. The KD values were calculated using the Biacore single cycle kinetics analysis.
A general note: Surface plasmon resonance follows binding to a sensor surface in real time, without labels.

A word on the Kd: it is the free concentration of one partner at which half of the binding sites on the other are occupied at equilibrium, for simple one-to-one binding.

T1 sequence (Q03405 other isoform, or with tags, fused parts or gaps): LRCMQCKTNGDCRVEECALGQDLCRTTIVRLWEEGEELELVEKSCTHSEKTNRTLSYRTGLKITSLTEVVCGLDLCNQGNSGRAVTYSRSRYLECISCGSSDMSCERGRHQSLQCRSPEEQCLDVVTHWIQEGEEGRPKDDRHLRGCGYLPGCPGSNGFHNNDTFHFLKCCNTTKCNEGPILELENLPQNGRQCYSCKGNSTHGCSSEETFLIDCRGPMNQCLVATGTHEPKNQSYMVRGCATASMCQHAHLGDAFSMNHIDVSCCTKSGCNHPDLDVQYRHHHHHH

B1: 17C9 antibody (antibody, V domains shown)
VH: EVQLVESGGGLVKPGGSLKLSCAASGFTFSSYAMSWVRQSPEKRLEWVAEISSGGTYTYYPDTVTGRFTISRDNAKNTLYLEMSSLRSEDTAMYYCARDDGFYAWFGYWGQGTLVTVSA
VL: not shown
For the molecule B1, the equilibrium dissociation constant (Kd) came out at 18.6 nM.

B2: 8B1 antibody (antibody, V domains shown)
VH: QIQLVQSGPELKKPGETVKISCKASGYTFTNYGMNWVKQAPGKGLKWMGWINTNTGEPTYAEEFKGRFAFSLETSASTAYLQINNLKNEDTATYFCGDYEFAYWGQGTLVTVSA
VL: DIQMTQSPASLSVSVGETVTITCRASENIYSNLAWYQQKQGKSPQLLVYAATNLADGVPSRFSGSGSGTQYSLKINSLQSEDFGSYYCQHFWGTPWTFGGGTKLEIK
With B2, the equilibrium dissociation constant (Kd) was 3.48 nM.

B3: 14C5 antibody (antibody, V domains shown)
VH: QVQLKESGPGLVAPSQSLSITCTVSGFSLTSYGVHWVRQPPGKGLEWLGVLWAGGSTDYNSALMSRLSISKDNSKSQVFLKMNSLQTDDTAMYYCARGGLRQVFAYWGQGTLVTVSA
VL: DVLMTQTPLSLPVSLGDQASISCRSSQSIVYSNGNTYLEWYLQKPGQSPKLLIYKVSNRFSGVPDRFSGSGSGTDFTLKISRVEAEDLGVYYCFQGSHVPYTFGGGTKLEMK
Turning to B3, the equilibrium dissociation constant (Kd) came out at 42.4 nM.

B4: 11E10 antibody (antibody, V domains shown)
VH: QVQLQQSGPELVKPGASVKMSCKTSGYTFTDYVITWVKQRTGQGLEWIGEIYPRSGNTYYNAKFRGKATLTADKSSNTAYMQLSSLTSEDSAVYFCARGGYYDFDFFAMDYWGQGTSVTVSS
VL: DIVMTQAAPSVPVTPGESVSISCRSSKSLLHSNGNTYLYWFLQRPGQSPQLLIYRMSNLASGVPDRFSGSGSGTAFTLRISRVEAEDVGVYYCMQHLEYPYTFGGGTKLEIK
Turning to B4, the equilibrium dissociation constant (Kd) amounted to 95.2 nM.

B5: 6C8 antibody (antibody, V domains shown)
VH: EVQLVESGGGLVQPGGSLKISCAASGFTFTNYGMSWVRQTPDKRLELVATTNSNGGATYYPDSVKGRFTISRDNAKNTLYLQMSSLKSEDTAMYFCTRDRDYYGGSMDYWGQGTSVTVSS
VL: DIVMSQSPSSLAVSVGERVSMSCKSSQSLLYSSDQKNYLAWYQQKPGQSPELLIYWASTRESGVPDRFTGSGSGTDFTLTISSVKAEDLAIYYCQQYYSYPFTFGSGTKLEIK
In the case of B5, the dissociation constant (Kd) is 6.61 nM.
